A word on the Kd: it is a measure of binding affinity in units of concentration.

Data on 5 molecules can be found in patent US20250230224A1.

In assay [1] the target is Mosaic botulinum neurotoxin BoNT/CD (Clostridium botulinum). Nature of the assay: KinExA flow fluorimetry, solution phase, IgG. (Kinetic exclusion samples the free partner from a solution-phase mixture.)
The target of assay [2] is Mosaic botulinum neurotoxin BoNT/DC (Clostridium botulinum). The assay can be described thus: KinExA flow fluorimetry, solution phase, IgG.
The target in another assay is BoNT/F3. The assay can be described thus: KinExA, IgG.
The target of another assay is BoNT/F5. Nature of the assay: KinExA, IgG.
The target of another assay is BoNT/F2. Nature of the assay: KinExA, IgG.
Another assay concerns the target BoNT/F4. The assay can be described thus: KinExA, IgG.
A further assay has as its target BoNT/F6. The assay can be described thus: KinExA, IgG.
The target in another assay is BoNT/F7. The assay can be described thus: KinExA, IgG.

B1: 8DC4.4 IgG (antibody, V domains shown)
VH: QVQLQESGPGLVKPSQTLSLTCTVSGGSISSDNYFWTWIRQSPGKGLEWLGHISYSGRSYTNLSLKRRLTISVDTSKNQFSLNLNSVTAADTAVYYCARERLPPGRGYDMDVWGQGTTVTVSS
VL: DIVMTQSPSSVSASVGDRVTITCRASRDISIYLNWYQQKPGKAPKLLIYAASNLETGVPSRFSGSGSGTDFTLTISSLQPEDVATYYCQQSYNTPLTFGGGTKLEIKR
For B1, the Kd was determined as 0.117 nM in assay [1] and 0.146 nM in assay [2].

B2: 4C4.4 IgG (antibody, V domains shown)
VH: QVQLQESGPGLVKPSQTLSLTCTVSGASISNSPYFWNWFRQFPGKGLEWIGYIYWSGSTNYNPSLKSRLAMSVDTSKNQFSLKLTSATAADTAVYYCARDQGGGTVVKENWFDPWGQGTLVTVSS
VL: DIVMTQSPSSLSASVGDRLTMTCQASQDIGKHLNWYQQKAGKPPKLLIYGASNLKTGVPSRFSAGVSWTDFTFTISNVQPEDVATYYCQQSYSTPPTFGQGTKVEIKR
In the case of B2, the Kd in assay [1] came to 0.016 nM; in assay [2], 0.087 nM.

B3: Hu6F13.4 IgG (antibody, V domains shown)
VH: QVQLVQSGAEVKKPGASVKVSCKASGYSFTSYWMHWVRQAPGQGLEWIGFINPINGGIIYNEKFRFRATLTVDTSISTAYMELSRLRSDDTAVYYCARAGYYGSSRHFDVWGQGTLLTVSS
VL: ETTLTQSPSSLSASVGDRVTITCRASQGIRNYLAWYQQKPGKAPKLLIYDASNLETGVPSRFSGSGSGTDFTFTISSLQPEDFATYYCLQTSSTPWTFGQGTKVDIKR
On to B3, for which the Kd amounted to 0.297 nM with BoNT/F3; 0.0172 nM with BoNT/F5; 0.216 nM with BoNT/F2; 0.405 nM with BoNT/F4; 0.172 nM in the assay with BoNT/F6; 0.206 nM with BoNT/F7.

B4: 6F5.4 IgG (antibody, V domains shown)
VH: EVQLVPSGGNLVQPGGSLRLSCAATGPIDYHWMTWVRQAPGQGLEWVANINLDGTEKFYVDSVKGRFTVSRDNRKSSVFLQMNNLRVDDTAVYYCARLQWGERDGWLSPWGQGTLVTVSS
VL: DIVMTQSPPSLSASVGDRVRLTCRASQSIGRSLNWYQQKPGKAPKLLIYDASALHSGVPSRFSGSGSGTDFTLTISGLQPEDFATYYCQQTNDLPVTFGGGTKLEIKR
With B4, the Kd stood at 0.00519 nM in the assay with BoNT/F3; 0.00588 nM with BoNT/F5; 0.00016 nM with BoNT/F2; 0.0258 nM with BoNT/F4; 0.0004 nM in the assay with BoNT/F6; 0.00374 nM in the assay with BoNT/F7.

B5: Hu6F11 IgG (antibody, V domains shown)
VH: EVQLVESGGGLVKPGGSLRLSCAASGFTFSNYGMSWVRQAPGKGLEWVASISSGGSYIYYPDSVKGRFTISRDNAKNSLYLQMNSLRAEDTAVYYCARRKGYDSLYWYFDVWGQGTLVTVSS
VL: DVVMTQSPSSLSAFVGDRVTITCRASQGIRSYLAWFQQKPGKAPKLLIYAASTLQSGVPSRFSGSGSGTEFTLTVSGLQPEDFATYYCQQYNSYPLTFGGGTRLEIKR
Regarding B5, the Kd with BoNT/F3 came out at 0.00803 nM; in the assay with BoNT/F5, 0.0218 nM; in the assay with BoNT/F2 it was 0.0283 nM; with BoNT/F4 it was 0.0137 nM; with BoNT/F6, 0.0037 nM; with BoNT/F7 it was 0.00334 nM.
